Source: PMC11396700, “Synthesis and Biological Activity of Homohypotaurine Obtained by the Enzyme-Based Conversion of Homocysteine Sulfinic Acid Using Recombinant Escherichia Coli Glutamate Decarboxylase” (Molecules, 2024)

T1: EcGadB (Escherichia coli, UniProt P69910)
T1 construct: gene gadB; recombinant, purified full-length enzyme, prepared by earlier published protocol; PLP enzyme
T1 sequence (P69910 1-466): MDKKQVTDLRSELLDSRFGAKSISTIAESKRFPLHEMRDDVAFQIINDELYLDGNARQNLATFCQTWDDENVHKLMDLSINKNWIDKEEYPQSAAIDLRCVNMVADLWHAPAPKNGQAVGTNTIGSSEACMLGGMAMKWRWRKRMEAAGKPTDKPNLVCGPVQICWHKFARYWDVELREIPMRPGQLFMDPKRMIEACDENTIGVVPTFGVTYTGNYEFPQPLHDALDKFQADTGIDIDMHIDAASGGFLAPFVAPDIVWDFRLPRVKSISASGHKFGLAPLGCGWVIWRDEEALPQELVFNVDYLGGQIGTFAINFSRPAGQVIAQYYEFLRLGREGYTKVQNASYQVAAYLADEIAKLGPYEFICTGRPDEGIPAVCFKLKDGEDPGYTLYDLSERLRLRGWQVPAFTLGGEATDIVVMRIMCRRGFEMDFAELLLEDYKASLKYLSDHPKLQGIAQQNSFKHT

B1: EcGadB (Escherichia coli K-12) (protein)
chain: T1 sequence (P69910 1-466)
notes: recombinant, purified full-length enzyme, prepared by earlier published protocol; PLP enzyme

What was measured:
EcGadB = molecular target: T1, EcGadB; test: decarboxylation; GABA quantified by end-point GABase assay (NADPH at […] nm), Michaelis-Menten fit; format: biochemical; details: pyridine/HCl 0.2 M (0.1 M in Figure 2 legend), pH 4.6, 37 °C, 1 mM PLP, 0.1 mM DTT; 0.15-10 mM substrate
purified protein = substrate: N[C@@H](CCS(=O)O)C(=O)O; test: purified protein; format: biochemical, Escherichia coli; details: pyridine/HCl 0.2 M (0.1 M in Figure 2 legend), pH 4.6, 37 °C, 1 mM PLP, 0.1 mM DTT, 3-300 mM substrate

Row | Molecule | Km (EcGadB) | Km (purified protein) | kcat (purified protein) | kcat/Km (purified protein)
1 | N[C@@H](CCC(=O)O)C(=O)O [L-Glu, L-Glutamic acid] | 840 ± 90 µM | – | – | –
2 | B1 | – | 38240 ± 3450 µM | 33.9 ± 1.07 s⁻¹ | 890 ± 90 M⁻¹ s⁻¹
